Assay results published in patent US20140087995A1 (published 2014).
Substitutions are numbered along the chain they refer to. Numbered stars: 1 amine (or outer) side, 2 acyl side, 3 side chain; on linkers, the order of the positions; unused ones are H or OH. Bridge positions count the residues as written; N and C are the ends. Side chains are listed from the residue outwards. Ends that are not written are not given here. * marks the point of attachment. C20 diacid = O=C(O)CCCCCCCCCCCCCCCCCCC(=O)*; γGlu = O=C(O)[C@H](CCC(=O)[*:2])N[*:1]

T1: human calcitonin receptor (human, UniProt P30988 25-474)
T1 construct: whole, on cells; Used as cell membranes prepared from the transfected BHK cells (Assay VII), not as intact cells; also called hCTR; hCT
T1 sequence (looked up): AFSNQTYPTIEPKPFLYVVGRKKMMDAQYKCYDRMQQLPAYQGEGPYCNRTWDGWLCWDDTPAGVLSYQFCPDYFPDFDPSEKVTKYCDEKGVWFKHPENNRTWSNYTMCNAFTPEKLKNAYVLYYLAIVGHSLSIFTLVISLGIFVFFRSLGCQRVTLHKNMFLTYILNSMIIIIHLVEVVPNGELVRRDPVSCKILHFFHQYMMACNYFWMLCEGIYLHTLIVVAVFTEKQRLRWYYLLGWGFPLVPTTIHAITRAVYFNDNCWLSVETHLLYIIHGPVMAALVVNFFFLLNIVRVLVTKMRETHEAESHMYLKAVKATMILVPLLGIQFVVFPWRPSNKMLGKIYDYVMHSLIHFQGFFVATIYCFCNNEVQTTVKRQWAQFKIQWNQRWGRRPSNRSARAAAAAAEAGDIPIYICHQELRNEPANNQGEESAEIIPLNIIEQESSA

T2: human calcitonin receptor (human, UniProt P30988 25-474)
T2 construct: whole, on cells; Assay used cell membranes of the transfected BHK cells; also called hCTR; hCT
T2 sequence (looked up): T1 sequence (looked up)

B1: N^α1 N^α1-[(4S)-4-carboxy-4-[[(4S)-4-carboxy-4-(19-carboxynonadecanoylamino)butanoyl]amino]butanoyl]-[Glu14,Arg17,Pro21,Pro27]-h-amylin (peptide)
peptide: {C20 diacid-γGlu-γGlu}-KCNTATCATQRLAEFLRHSSPNFGAIPSSTNVGSNTY-NH2
modifications: disulfide 2-7
SMILES: CC[C@H](C)[C@H](NC(=O)[C@H](C)NC(=O)CNC(=O)[C@H](Cc1ccccc1)NC(=O)[C@H](CC(N)=O)NC(=O)[C@@H]1CCCN1C(=O)[C@H](CO)NC(=O)[C@H](CO)NC(=O)[C@H](Cc1c[nH]cn1)NC(=O)[C@H](CCCNC(=N)N)NC(=O)[C@H](CC(C)C)NC(=O)[C@H](Cc1ccccc1)NC(=O)[C@H](CCC(=O)O)NC(=O)[C@H](C)NC(=O)[C@H](CC(C)C)NC(=O)[C@H](CCCNC(=N)N)NC(=O)[C@H](CCC(N)=O)NC(=O)[C@@H](NC(=O)[C@H](C)NC(=O)[C@@H]1CSSC[C@H](NC(=O)[C@H](CCCCN)NC(=O)CC[C@H](NC(=O)CC[C@H](NC(=O)CCCCCCCCCCCCCCCCCCC(=O)O)C(=O)O)C(=O)O)C(=O)N[C@@H](CC(N)=O)C(=O)N[C@@H]([C@@H](C)O)C(=O)N[C@@H](C)C(=O)N[C@@H]([C@@H](C)O)C(=O)N1)[C@@H](C)O)C(=O)N1CCC[C@H]1C(=O)N[C@@H](CO)C(=O)N[C@@H](CO)C(=O)N[C@H](C(=O)N[C@@H](CC(N)=O)C(=O)N[C@H](C(=O)NCC(=O)N[C@@H](CO)C(=O)N[C@@H](CC(N)=O)C(=O)N[C@H](C(=O)N[C@@H](Cc1ccc(O)cc1)C(N)=O)[C@@H](C)O)C(C)C)[C@@H](C)O
notes: also called compound 15
B2: N^α1-[(4S)-4-carboxy-4-(19-carboxynonadecanoylamino)butanoyl]-[Arg17,Pro21,Pro27,His34]-h-amylin (peptide)
peptide: KCNTATCATQRLANFLRHSSPNFGAIPSSTNVGHNTY
modifications: C20 diacid-gGlu on the alpha amino group of the N-terminal Lys1; disulfide Cys2-Cys7; C-terminal amide
notes: also called compound 40
B3: N^α1-[(4S)-4-carboxy-4-(19-carboxynonadecanoylamino)butanoyl]-[Arg17,Pro21,Pro27,Glu35]-h-amylin (peptide)
peptide: B2 peptide with H34S, N35E
modifications: C20 diacid-gGlu on the alpha amino group of the N-terminal Lys1; disulfide Cys2-Cys7; C-terminal amide
notes: also called compound 23
B4: N^α1-[(4S)-4-carboxy-4-(19-carboxynonadecanoylamino)butanoyl]-[Arg17,Pro21,Pro27,Lys35]-h-amylin (peptide)
peptide: B2 peptide with H34S, N35K
modifications: C20 diacid-gGlu on the alpha amino group of the N-terminal Lys1; disulfide Cys2-Cys7; C-terminal amide
notes: also called compound 34
B5: N^α1-[2-[2-[2-[[2-[2-[2-[[(4S)-4-carboxy-4-(19-carboxynonadecanoylamino)butanoyl]amino]ethoxy]ethoxy]acetyl]amino]ethoxy]ethoxy]acetyl]-[Glu14,Arg17,Pro21,Pro27 … (peptide)
peptide: B2 peptide with N14E, H34S
modifications: C20 diacid-gGlu-2xOEG on the alpha amino group of the N-terminal Lys1; disulfide Cys2-Cys7; C-terminal amide
notes: also called compound 19
B6: N^α1-[(4S)-4-carboxy-4-(19-carboxynonadecanoylamino)butanoyl]-[Arg17,Pro21,Pro27,Arg34]-h-amylin (peptide)
peptide: B2 peptide with H34R
modifications: C20 diacid-gGlu on the alpha amino group of the N-terminal Lys1; disulfide Cys2-Cys7; C-terminal amide
notes: also called compound 39
B7: N^ε1-[(4S)-4-carboxy-4-(19-carboxynonadecanoylamino)butanoyl]-[Glu14,Arg17,Pro21,Pro27,Arg35]-h-amylin (peptide)
peptide: K([γGlu-C20 diacid])CNTATCATQRLAEFLRHSSPNFGAIPSSTNVGSRTY-NH2
modifications: disulfide 2-7; N-terminus assumed
SMILES: CC[C@H](C)[C@H](NC(=O)[C@H](C)NC(=O)CNC(=O)[C@H](Cc1ccccc1)NC(=O)[C@H](CC(N)=O)NC(=O)[C@@H]1CCCN1C(=O)[C@H](CO)NC(=O)[C@H](CO)NC(=O)[C@H](Cc1c[nH]cn1)NC(=O)[C@H](CCCNC(=N)N)NC(=O)[C@H](CC(C)C)NC(=O)[C@H](Cc1ccccc1)NC(=O)[C@H](CCC(=O)O)NC(=O)[C@H](C)NC(=O)[C@H](CC(C)C)NC(=O)[C@H](CCCNC(=N)N)NC(=O)[C@H](CCC(N)=O)NC(=O)[C@@H](NC(=O)[C@H](C)NC(=O)[C@@H]1CSSC[C@H](NC(=O)[C@@H](N)CCCCNC(=O)CC[C@H](NC(=O)CCCCCCCCCCCCCCCCCCC(=O)O)C(=O)O)C(=O)N[C@@H](CC(N)=O)C(=O)N[C@@H]([C@@H](C)O)C(=O)N[C@@H](C)C(=O)N[C@@H]([C@@H](C)O)C(=O)N1)[C@@H](C)O)C(=O)N1CCC[C@H]1C(=O)N[C@@H](CO)C(=O)N[C@@H](CO)C(=O)N[C@H](C(=O)N[C@@H](CC(N)=O)C(=O)N[C@H](C(=O)NCC(=O)N[C@@H](CO)C(=O)N[C@@H](CCCNC(=N)N)C(=O)N[C@H](C(=O)N[C@@H](Cc1ccc(O)cc1)C(N)=O)[C@@H](C)O)C(C)C)[C@@H](C)O
notes: Synthetic analogue; also called compound 51
B8: N^ε1-[(4S)-4-carboxy-4-(19-carboxynonadecanoylamino)butanoyl]-[His14,Arg17,Pro21,Pro27,Pro31]-h-amylin (peptide)
peptide: K([γGlu-C20 diacid])CNTATCATQRLAHFLRHSSPNFGAIPSSTPVGSNTY-NH2
modifications: disulfide 2-7; N-terminus assumed
SMILES: CC[C@H](C)[C@H](NC(=O)[C@H](C)NC(=O)CNC(=O)[C@H](Cc1ccccc1)NC(=O)[C@H](CC(N)=O)NC(=O)[C@@H]1CCCN1C(=O)[C@H](CO)NC(=O)[C@H](CO)NC(=O)[C@H](Cc1c[nH]cn1)NC(=O)[C@H](CCCNC(=N)N)NC(=O)[C@H](CC(C)C)NC(=O)[C@H](Cc1ccccc1)NC(=O)[C@H](Cc1c[nH]cn1)NC(=O)[C@H](C)NC(=O)[C@H](CC(C)C)NC(=O)[C@H](CCCNC(=N)N)NC(=O)[C@H](CCC(N)=O)NC(=O)[C@@H](NC(=O)[C@H](C)NC(=O)[C@@H]1CSSC[C@H](NC(=O)[C@@H](N)CCCCNC(=O)CC[C@H](NC(=O)CCCCCCCCCCCCCCCCCCC(=O)O)C(=O)O)C(=O)N[C@@H](CC(N)=O)C(=O)N[C@@H]([C@@H](C)O)C(=O)N[C@@H](C)C(=O)N[C@@H]([C@@H](C)O)C(=O)N1)[C@@H](C)O)C(=O)N1CCC[C@H]1C(=O)N[C@@H](CO)C(=O)N[C@@H](CO)C(=O)N[C@H](C(=O)N1CCC[C@H]1C(=O)N[C@H](C(=O)NCC(=O)N[C@@H](CO)C(=O)N[C@@H](CC(N)=O)C(=O)N[C@H](C(=O)N[C@@H](Cc1ccc(O)cc1)C(N)=O)[C@@H](C)O)C(C)C)[C@@H](C)O
notes: Synthetic analogue; also called compound 62
B9: N^ε1-[(4S)-4-carboxy-4-[[(4S)-4-carboxy-4-(19-carboxynonadecanoylamino)butanoyl]amino]butanoyl]-[Asp14,Arg17,Pro21,Pro27,Arg35]-h-amylin (peptide)
peptide: K([γGlu-γGlu-C20 diacid])CNTATCATQRLADFLRHSSPNFGAIPSSTNVGSRTY-NH2
modifications: disulfide 2-7; N-terminus assumed
SMILES: CC[C@H](C)[C@H](NC(=O)[C@H](C)NC(=O)CNC(=O)[C@H](Cc1ccccc1)NC(=O)[C@H](CC(N)=O)NC(=O)[C@@H]1CCCN1C(=O)[C@H](CO)NC(=O)[C@H](CO)NC(=O)[C@H](Cc1c[nH]cn1)NC(=O)[C@H](CCCNC(=N)N)NC(=O)[C@H](CC(C)C)NC(=O)[C@H](Cc1ccccc1)NC(=O)[C@H](CC(=O)O)NC(=O)[C@H](C)NC(=O)[C@H](CC(C)C)NC(=O)[C@H](CCCNC(=N)N)NC(=O)[C@H](CCC(N)=O)NC(=O)[C@@H](NC(=O)[C@H](C)NC(=O)[C@@H]1CSSC[C@H](NC(=O)[C@@H](N)CCCCNC(=O)CC[C@H](NC(=O)CC[C@H](NC(=O)CCCCCCCCCCCCCCCCCCC(=O)O)C(=O)O)C(=O)O)C(=O)N[C@@H](CC(N)=O)C(=O)N[C@@H]([C@@H](C)O)C(=O)N[C@@H](C)C(=O)N[C@@H]([C@@H](C)O)C(=O)N1)[C@@H](C)O)C(=O)N1CCC[C@H]1C(=O)N[C@@H](CO)C(=O)N[C@@H](CO)C(=O)N[C@H](C(=O)N[C@@H](CC(N)=O)C(=O)N[C@H](C(=O)NCC(=O)N[C@@H](CO)C(=O)N[C@@H](CCCNC(=N)N)C(=O)N[C@H](C(=O)N[C@@H](Cc1ccc(O)cc1)C(N)=O)[C@@H](C)O)C(C)C)[C@@H](C)O
notes: Synthetic analogue of human amylin; also called compound 52

These binders were tested against T1, human calcitonin receptor (assay: SPA competition against 125I-calcitonin, membranes with human calcitonin receptor (Assay VII)).
Experimental: Membranes were prepared in the following way; the cells were rinsed with PBS and incubated with Versene for approximately 5 min before harvesting. The cells were flushed with PBS and the cell-suspension was centrifuged for 5 min at 1000 rpm. Cells were homogenized (Ultrathurrax) in a buffer containing 20 mM Na-HEPES and 10 mM EDTA (pH 7.4) and centrifuged at 20.000 rpm for 15 min. The resulting pellet was resuspended, homogenized and centrifuged (20.000 rpm, 15 min) in a buffer containing 20 mM Na-HEPES and 0.1 mM EDTA (pH 7.4, buffer 2). The resulting pellet was resuspended in buffer 2 and protein concentration was measured (BCA protein Assay, Pierce). The homogenate was kept cold during the whole procedure. The membranes were kept at −80° C. until use. Assay was performed in a 384 well Optiplate (PerkinElmer) in a total volume of 40 ul. Membranes were mixed with SPA beads. Final concentration of membranes 35 ng/μL final and Final concentration of SPA beads was 0.05 mg/well. Test-compounds were dissolved in DMSO and further diluted in assay buffer (50 mM Hepes, pH 7.4, 1 mM CaCl2, 5 mM MgCl₂, 0.1% OA and 0.02% Tween20). […] The final mixture was incubated for 120 min with shaking at 400 rpm at 25° C. prior to centrifugation (1500 rpm, 10 min). Samples were analyzed on TopCounter™ (Packard). The […] was calculated using (one site binding competition analysis) GraphPad Prism5 as a measure of receptor affinity.

| Binder | IC50 [nM] |
| --- | --- |
| B1 | 15.5 |
| B2 | 17.1 |
| B3 | 21.8 |
| B4 | 73.4 |
| B5 | 20.4 |
| B6 | 19.3 |

Each binder was assayed against T2, human calcitonin receptor (assay: SPA radioligand competition (125I-calcitonin), membranes of BHK cells with human calcitonin receptor).
Procedure, shortened: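 BHK hCTR membranes 35 ng/μL + SPA beads 0.05 mg/well; buffer 50 mM Hepes pH 7.4, 1 mM CaCl2, 5 mM MgCl₂, 0.1% OA, 0.02% Tween20. 120 min, 25° C., shaking. Scintillation count; IC50 by one-site binding competition.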

| Binder | IC50 [nM] |
| --- | --- |
| B7 | 31.1 |
| B8 | 6.17 |
| B9 | 56.9 |
